Consider nine molecules from publication PMC12867984, “Functional assessment of protein variants in structured domains by fluorescence cross-correlation spectroscopy” (Scientific Reports, 2026).

Holding throughout (settings): partners not purified
For assay [1], the target named is T1, mCherry-RBBP8 (UniProt Q99708 1-897).
T1 construct: also called mCherry-RBBP8/CtIP; CtIP; source: HeLa, transfected, in live cells and in lysate
Nature of the assay: fluorescence cross-correlation spectroscopy (FCCS); GFP- and mCherry-tagged proteins co-expressed in live HeLa cells; focal volume in the nucleoplasm (MSH2-MSH6 also in the cytoplasm); room temperature; cross-correlation/autocorrelation ratio.

For a further assay, the target named is T2, mCherry-JUND (UniProt P17535 1-347).
T2 construct: JUND; the construct is not described in the methods; also called JunD Proto-Oncogene; source: HeLa, transfected, in lysate
T2 sequence (looked up): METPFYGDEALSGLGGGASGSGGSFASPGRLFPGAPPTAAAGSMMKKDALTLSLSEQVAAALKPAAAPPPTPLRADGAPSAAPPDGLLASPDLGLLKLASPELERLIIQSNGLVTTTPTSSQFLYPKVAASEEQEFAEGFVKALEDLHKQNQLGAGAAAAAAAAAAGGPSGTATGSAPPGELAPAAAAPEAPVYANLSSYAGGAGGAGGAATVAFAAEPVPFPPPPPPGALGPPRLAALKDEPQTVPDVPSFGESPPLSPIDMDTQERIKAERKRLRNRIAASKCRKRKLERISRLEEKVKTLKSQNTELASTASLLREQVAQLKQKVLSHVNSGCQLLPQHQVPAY
Nature of the assay: fluorescence cross-correlation spectroscopy (FCCS); lysate of co-transfected HeLa cells; 20 mM Tris-HCl pH 7.5, 140 mM KCl, 1.5 mM MgCl2, 1 mM DTT, 0.5% NP-40; lysed at room temperature; cross-correlation/autocorrelation ratio.

The target in assay [2] is T1, mCherry-RBBP8. The description is as above.
A further assay addresses T3, mCherry-BARD1 (UniProt Q99728 1-777).
T3 construct: also called BRCA1 Associated RING Domain 1; source: HeLa, transfected, in live cells and in lysate
T3 sequence (looked up): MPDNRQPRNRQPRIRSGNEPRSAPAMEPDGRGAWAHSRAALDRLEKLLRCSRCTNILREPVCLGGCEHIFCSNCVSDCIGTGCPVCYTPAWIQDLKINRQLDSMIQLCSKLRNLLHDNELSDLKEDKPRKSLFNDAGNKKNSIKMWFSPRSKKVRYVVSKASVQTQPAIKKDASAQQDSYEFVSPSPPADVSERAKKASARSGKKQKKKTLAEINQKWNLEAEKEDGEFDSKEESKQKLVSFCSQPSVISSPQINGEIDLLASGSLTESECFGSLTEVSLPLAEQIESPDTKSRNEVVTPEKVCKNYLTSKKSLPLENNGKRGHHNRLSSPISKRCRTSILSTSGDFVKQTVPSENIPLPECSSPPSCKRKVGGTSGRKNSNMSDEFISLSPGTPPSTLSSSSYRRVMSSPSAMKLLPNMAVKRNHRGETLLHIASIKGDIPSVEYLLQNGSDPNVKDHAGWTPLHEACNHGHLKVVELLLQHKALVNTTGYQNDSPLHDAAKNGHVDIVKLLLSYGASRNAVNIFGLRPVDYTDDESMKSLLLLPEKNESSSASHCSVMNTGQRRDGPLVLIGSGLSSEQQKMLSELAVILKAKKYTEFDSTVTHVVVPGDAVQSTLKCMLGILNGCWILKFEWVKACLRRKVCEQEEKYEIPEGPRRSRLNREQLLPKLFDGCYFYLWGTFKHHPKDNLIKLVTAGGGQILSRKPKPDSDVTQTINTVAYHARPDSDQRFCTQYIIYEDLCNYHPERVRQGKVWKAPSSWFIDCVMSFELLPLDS
The assay is described as above.

Positions count from the first letter of the chain named. In names and notes the source's numbering stands.

T1 sequence (Q99708 whole entry): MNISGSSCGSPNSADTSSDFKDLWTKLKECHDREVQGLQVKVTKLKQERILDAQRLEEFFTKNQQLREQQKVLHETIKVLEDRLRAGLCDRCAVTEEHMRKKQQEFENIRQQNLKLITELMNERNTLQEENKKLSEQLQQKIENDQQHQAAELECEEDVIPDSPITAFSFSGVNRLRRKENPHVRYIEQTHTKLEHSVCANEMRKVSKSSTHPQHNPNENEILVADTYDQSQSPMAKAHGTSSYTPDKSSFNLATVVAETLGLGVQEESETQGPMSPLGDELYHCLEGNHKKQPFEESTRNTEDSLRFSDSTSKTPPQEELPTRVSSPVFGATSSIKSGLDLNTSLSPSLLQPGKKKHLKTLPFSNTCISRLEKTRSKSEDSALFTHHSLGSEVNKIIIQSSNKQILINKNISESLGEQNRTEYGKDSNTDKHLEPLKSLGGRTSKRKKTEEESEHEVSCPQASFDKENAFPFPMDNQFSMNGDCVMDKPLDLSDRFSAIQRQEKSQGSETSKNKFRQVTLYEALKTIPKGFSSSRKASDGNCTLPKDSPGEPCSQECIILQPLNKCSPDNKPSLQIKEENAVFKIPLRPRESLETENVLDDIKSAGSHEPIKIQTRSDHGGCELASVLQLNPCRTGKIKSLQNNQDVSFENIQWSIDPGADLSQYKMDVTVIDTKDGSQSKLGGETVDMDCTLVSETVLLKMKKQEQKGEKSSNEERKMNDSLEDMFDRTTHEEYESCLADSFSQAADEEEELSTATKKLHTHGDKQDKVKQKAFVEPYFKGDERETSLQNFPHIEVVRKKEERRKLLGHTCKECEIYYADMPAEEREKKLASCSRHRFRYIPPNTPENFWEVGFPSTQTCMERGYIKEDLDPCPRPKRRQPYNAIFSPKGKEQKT

B1: GFP-BRCA1 p.Thr1684Ala (natural protein, UniProt P38398 1-1863, looked up)
chain: MDLSALRVEEVQNVINAMQKILECPICLELIKEPVSTKCDHIFCKFCMLKLLNQKKGPSQCPLCKNDITKRSLQESTRFSQLVEELLKIICAFQLDTGLEYANSYNFAKKENNSPEHLKDEVSIIQSMGYRNRAKRLLQSEPENPSLQETSLSVQLSNLGTVRTLRTKQRIQPQKTSVYIELGSDSSEDTVNKATYCSVGDQELLQITPQGTRDEISLDSAKKAACEFSETDVTNTEHHQPSNNDLNTTEKRAAERHPEKYQGSSVSNLHVEPCGTNTHASSLQHENSSLLLTKDRMNVEKAEFCNKSKQPGLARSQHNRWAGSKETCNDRRTPSTEKKVDLNADPLCERKEWNKQKLPCSENPRDTEDVPWITLNSSIQKVNEWFSRSDELLGSDDSHDGESESNAKVADVLDVLNEVDEYSGSSEKIDLLASDPHEALICKSERVHSKSVESNIEDKIFGKTYRKKASLPNLSHVTENLIIGAFVTEPQIIQERPLTNKLKRKRRPTSGLHPEDFIKKADLAVQKTPEMINQGTNQTEQNGQVMNITNSGHENKTKGDSIQNEKNPNPIESLEKESAFKTKAEPISSSISNMELELNIHNSKAPKKNRLRRKSSTRHIHALELVVSRNLSPPNCTELQIDSCSSSEEIKKKKYNQMPVRHSRNLQLMEGKEPATGAKKSNKPNEQTSKRHDSDTFPELKLTNAPGSFTKCSNTSELKEFVNPSLPREEKEEKLETVKVSNNAEDPKDLMLSGERVLQTERSVESSSISLVPGTDYGTQESISLLEVSTLGKAKTEPNKCVSQCAAFENPKGLIHGCSKDNRNDTEGFKYPLGHEVNHSRETSIEMEESELDAQYLQNTFKVSKRQSFAPFSNPGNAEEECATFSAHSGSLKKQSPKVTFECEQKEENQGKNESNIKPVQTVNITAGFPVVGQKDKPVDNAKCSIKGGSRFCLSSQFRGNETGLITPNKHGLLQNPYRIPPLFPIKSFVKTKCKKNLLEENFEEHSMSPEREMGNENIPSTVSTISRNNIRENVFKEASSSNINEVGSSTNEVGSSINEIGSSDENIQAELGRNRGPKLNAMLRLGVLQPEVYKQSLPGSNCKHPEIKKQEYEEVVQTVNTDFSPYLISDNLEQPMGSSHASQVCSETPDDLLDDGEIKEDTSFAENDIKESSAVFSKSVQKGELSRSPSPFTHTHLAQGYRRGAKKLESSEENLSSEDEELPCFQHLLFGKVNNIPSQSTRHSTVATECLSKNTEENLLSLKNSLNDCSNQVILAKASQEHHLSEETKCSASLFSSQCSELEDLTANTNTQDPFLIGSSKQMRHQSESQGVGLSDKELVSDDEERGTGLEENNQEEQSMDSNLGEAASGCESETSVSEDCSGLSSQSDILTTQQRDTMQHNLIKLQQEMAELEAVLEQHGSQPSNSYPSIISDSSALEDLRNPEQSTSEKAVLTSQKSSEYPISQNPEGLSADKFEVSADSSTSKNKEPGVERSSPSKCPSLDDRWYMHSCSGSLQNRNYPSQEELIKVVDVEEQQLEESGPHDLTETSYLPRQDLEGTPYLESGISLFSDDPESDPSEDRAPESARVGNIPSSTSALKVPQLKVAESAQSPAAAHTTDTAGYNAMEESVSREKPELTASTERVNKRMSMVVSGLTPEEFMLVYKFARKHHITLTNLITEEATHVVMKTDAEFVCERTLKYFLGIAGGKWVVSYFWVTQSIKERKMLNEHDFEVRGDVVNGRNHQGPKRARESQDRKIFRGLEICCYGPFTNMPTDQLEWMVQLCGASVVKELSSFTLGTGVHPIVVVQPDAWTEDNGFHAIGQMCEAPVVTREWVLDSVALYQCQELDTYLIPQIPHSHY
notes: also called T1684A; source: HeLa, transfected, in live cells
For the molecule B1, the “reduction in binding relative to wild type” value with mCherry-RBBP8 [1] was approximately 50%.

B2: GFP-Menin (natural protein, UniProt O00255 1-610, looked up)
chain: MGLKAAQKTLFPLRSIDDVVRLFAAELGREEPDLVLLSLVLGFVEHFLAVNRVIPTNVPELTFQPSPAPDPPGGLTYFPVADLSIIAALYARFTAQIRGAVDLSLYPREGGVSSRELVKKVSDVIWNSLSRSYFKDRAHIQSLFSFITGTKLDSSGVAFAVVGACQALGLRDVHLALSEDHAWVVFGPNGEQTAEVTWHGKGNEDRRGQTVNAGVAERSWLYLKGSYMRCDRKMEVAFMVCAINPSIDLHTDSLELLQLQQKLLWLLYDLGHLERYPMALGNLADLEELEPTPGRPDPLTLYHKGIASAKTYYRDEHIYPYMYLAGYHCRNRNVREALQAWADTATVIQDYNYCREDEEIYKEFFEVANDVIPNLLKEAASLLEAGEERPGEQSQGTQSQGSALQDPECFAHLLRFYDGICKWEEGSPTPVLHVGWATFLVQSLGRFEGQVRQKVRIVSREAEAAEAEEPWGEEAREGRRRGPRRESKPEEPPPPKKPALDKGLGTGQGAVSGPPRKPPGTVAGTARGPEGGSTAQVPAPTASPPPEGPVLTFQSEKMKGMKELLVATKINSSAIKLQLTAQSQVQMKKQKVSTPSDYTLSFLKRQRKGL
notes: Menin (MEN1); the construct and its isoform are not described in the methods; also called MEN1 factor Menin; source: HeLa, transfected, in lysate
In the case of B2, in the assay with mCherry-JUND, the cross-correlation was 21%.

B3: GFP-Menin A242V (natural protein, UniProt O00255 1-610, looked up)
chain: B2 chain with A242V
notes: Menin (MEN1) with the variant; construct and isoform not described; source: HeLa, transfected, in lysate
As to B3, the “binding relative to wild type” value with mCherry-JUND was approximately 50%.

B4: GFP-Menin A237V (natural protein, UniProt O00255 1-610, looked up)
chain: B2 chain with A237V
notes: as for B3
For the molecule B4, the “binding relative to wild type” value with mCherry-JUND is approximately 50%.

B5: GFP-BRCT (isolated BRCA1 BRCT domain, wild-type) (domain or fragment, UniProt P38398 1650-1863, looked up)
chain: MSMVVSGLTPEEFMLVYKFARKHHITLTNLITEETTHVVMKTDAEFVCERTLKYFLGIAGGKWVVSYFWVTQSIKERKMLNEHDFEVRGDVVNGRNHQGPKRARESQDRKIFRGLEICCYGPFTNMPTDQLEWMVQLCGASVVKELSSFTLGTGVHPIVVVQPDAWTEDNGFHAIGQMCEAPVVTREWVLDSVALYQCQELDTYLIPQIPHSHY
notes: BRCA1 amino acids 1650-1864 cloned into pEGFP-C1; the printed limit 1864 may count the stop codon; also called EGFP-tagged BRCT trimmed domain; source: HeLa, transfected, in lysate
Take B5: the cross-correlation with mCherry-RBBP8 [2] stood at 17%.

B6: GFP-RING (isolated BRCA1 RING domain, wild-type) (domain or fragment, UniProt P38398 1-109, looked up)
chain: MDLSALRVEEVQNVINAMQKILECPICLELIKEPVSTKCDHIFCKFCMLKLLNQKKGPSQCPLCKNDITKRSLQESTRFSQLVEELLKIICAFQLDTGLEYANSYNFAK
notes: BRCA1 amino acids 1-109 cloned into pEGFP-C1; also called EGFP-tagged RING trimmed domain; wild-type RING; source: HeLa, transfected, in lysate
Regarding B6, the cross-correlation with mCherry-BARD1 was determined as 25%.

B7: GFP-RING-T37K (domain or fragment, UniProt P38398 1-109, looked up)
chain: B6 chain with T37K
notes: BRCA1 amino acids 1-109 with the variant; source: HeLa, transfected, in lysate
Consider B7, for which, in the assay with mCherry-BARD1, the “reduction in binding relative to wild type” value amounted to 20%.

B8: GFP-RING-T37R (domain or fragment, UniProt P38398 1-109, looked up)
chain: B6 chain with T37R
notes: BRCA1 amino acids 1-109 with the variant; also called p.Thr37Arg; source: HeLa, transfected, in lysate
Take B8: in the assay with mCherry-BARD1, the “reduction in binding relative to wild type” value amounted to 30%.

B9: GFP-RING D67Y (domain or fragment, UniProt P38398 1-109, looked up)
chain: B6 chain with D67Y
notes: BRCA1 amino acids 1-109 with the variant; also called D67Y variant (isolated RING domain); source: HeLa, transfected, in lysate
B9: the “reduction in binding relative to wild type” value in the assay with mCherry-BARD1 was 22%.
